# Measurements taken from patent US20210179693A1 (Xencor, published 2021).
# Positions count from the first letter of the chain named. Names may count otherwise.
# B1: anti-VEGF IgG2 N434S (antibody)
# heavy: EVQLVESGGGLVQPGGSLRLSCAASGYTFTNYGMNWVRQAPGKGLEWVGWINTYTGEPTYAADFKRRFTFSLDTSKSTAYLQMNSLRAEDTAVYYCAKYPHYYGSSHWYFDVWGQGTLVTVSSASTKGPSVFPLAPCSRSTSESTAALGCLVKDYFPEPVTVSWNSGALTSGVHTFPAVLQSSGLYSLSSVVTVPSSNFGTQTYTCNVDHKPSNTKVDKTVERKCCVECPPCPAPPVAGPSVFLFPPKPKDTLMISRTPEVTCVVVDVSHEDPEVQFNWYVDGVEVHNAKTKPREEQFNSTFRVVSVLTVVHQDWLNGKEYKCKVSNKGLPAPIEKTISKTKGQPREPQVYTLPPSREEMTKNQVSLTCLVKGFYPSDIAVEWESNGQPENNYKTTPPMLDSDGSFFLYSKLTVDKSRWQQGNVFSCSVMHEALHSHYTQKSLSLSPGK
# light: not shown
# B2: anti-VEGF IgG2 N434T (antibody)
# heavy: B1 heavy with S436T
# light: not shown
# B3: anti-VEGF IgG2 N434P (antibody)
# heavy: B1 heavy with S436P
# light: not shown
# B4: anti-VEGF IgG2 N434K (antibody)
# heavy: B1 heavy with S436K
# light: not shown
# B5: anti-VEGF IgG2 M428L/N434S (antibody)
# heavy: B1 heavy with M430L
# light: not shown
# B6: anti-VEGF IgG2 N434R (antibody)
# heavy: B1 heavy with S436R
# light: not shown
# B7: anti-VEGF IgG2 N434D (antibody)
# heavy: B1 heavy with S436D
# light: not shown
# B8: anti-VEGF IgG2 N434V (antibody)
# heavy: B1 heavy with S436V
# light: not shown
# notes: also called 434V in IgG2
# B9: anti-VEGF IgG2 N434E (antibody)
# heavy: B1 heavy with S436E
# light: not shown
# Molecular target: T1, human FcRn (His-tagged alpha chain with beta 2 microglobulin) (human, UniProt P55899 24-297; P61769 21-119, limits assumed)
# T1 construct: also called hFcRn; not shown: His tag
# Assay: Biacore, human FcRn on chip, pH 6.0
# Text: A cycle with antibody and buffer only provided baseline response, which was subtracted from each sample sensorgram.
fold FcRn binding [fold],binding result,fold FcRn binding relative to WT IgG2 [fold],Binder
4.9,,,B1
,binds,,B2
,,< 0.5,B3
,,< 0.5,B4
14.8,,,B5
,,< 0.5,B6
,,< 0.5,B7
,,< 0.5,B8
,,< 0.5,B9
